Laboratory results as given in IntAct's records for PubMed 25873389.

B1: Protein deacetylase HDAC6 (Homo sapiens), Q9UBN7 (parent)
chain: MTSTGQDSTTTRQRRSRQNPQSPPQDSSVTSKRNIKKGAVPRSIPNLAEVKKKGKMKKLGQAMEEDLIVGLQGMDLNLEAEALAGTGLVLDEQLNEFHCLWDDSFPEGPERLHAIKEQLIQEGLLDRCVSFQARFAEKEELMLVHSLEYIDLMETTQYMNEGELRVLADTYDSVYLHPNSYSCACLASGSVLRLVDAVLGAEIRNGMAIIRPPGHHAQHSLMDGYCMFNHVAVAARYAQQKHRIRRVLIVDWDVHHGQGTQFTFDQDPSVLYFSIHRYEQGRFWPHLKASNWSTTGFGQGQGYTINVPWNQVGMRDADYIAAFLHVLLPVALEFQPQLVLVAAGFDALQGDPKGEMAATPAGFAQLTHLLMGLAGGKLILSLEGGYNLRALAEGVSASLHTLLGDPCPMLESPGAPCRSAQASVSCALEALEPFWEVLVRSTETVERDNMEEDNVEESEEEGPWEPPVLPILTWPVLQSRTGLVYDQNMMNHCNLWDSHHPEVPQRILRIMCRLEELGLAGRCLTLTPRPATEAELLTCHSAEYVGHLRATEKMKTRELHRESSNFDSIYICPSTFACAQLATGAACRLVEAVLSGEVLNGAAVVRPPGHHAEQDAACGFCFFNSVAVAARHAQTISGHALRILIVDWDVHHGNGTQHMFEDDPSVLYVSLHRYDHGTFFPMGDEGASSQIGRAAGTGFTVNVAWNGPRMGDADYLAAWHRLVLPIAYEFNPELVLVSAGFDAARGDPLGGCQVSPEGYAHLTHLLMGLASGRIILILEGGYNLTSISESMAACTRSLLGDPPPLLTLPRPPLSGALASITETIQVHRRYWRSLRVMKVEDREGPSSSKLVTKKAPQPAKPRLAERMTTREKKVLEAGMGKVTSASFGEESTPGQTNSETAVVALTQDQPSEAATGGATLAQTISEAAIGGAMLGQTTSEEAVGGATPDQTTSEETVGGAILDQTTSEDAVGGATLGQTTSEEAVGGATLAQTTSEAAMEGATLDQTTSEEAPGGTELIQTPLASSTDHQTPPTSPVQGTTPQISPSTLIGSLRTLELGSESQGASESQAPGEENLLGEAAGGQDMADSMLMQGSRGLTDQAIFYAVTPLPWCPHLVAVCPIPAAGLDVTQPCGDCGTIQENWVCLSCYQVYCGRYINGHMLQHHGNSGHPLVLSYIDLSAWCYYCQAYVHHQALLDVKNIAHQNKFGEDMPHPH

Variants of: B1
Conditions: with hdac9_mouse Hdac9, Q99N13
hdac9_mouse Hdac9, Q99N13, sequence (Q99N13 whole entry): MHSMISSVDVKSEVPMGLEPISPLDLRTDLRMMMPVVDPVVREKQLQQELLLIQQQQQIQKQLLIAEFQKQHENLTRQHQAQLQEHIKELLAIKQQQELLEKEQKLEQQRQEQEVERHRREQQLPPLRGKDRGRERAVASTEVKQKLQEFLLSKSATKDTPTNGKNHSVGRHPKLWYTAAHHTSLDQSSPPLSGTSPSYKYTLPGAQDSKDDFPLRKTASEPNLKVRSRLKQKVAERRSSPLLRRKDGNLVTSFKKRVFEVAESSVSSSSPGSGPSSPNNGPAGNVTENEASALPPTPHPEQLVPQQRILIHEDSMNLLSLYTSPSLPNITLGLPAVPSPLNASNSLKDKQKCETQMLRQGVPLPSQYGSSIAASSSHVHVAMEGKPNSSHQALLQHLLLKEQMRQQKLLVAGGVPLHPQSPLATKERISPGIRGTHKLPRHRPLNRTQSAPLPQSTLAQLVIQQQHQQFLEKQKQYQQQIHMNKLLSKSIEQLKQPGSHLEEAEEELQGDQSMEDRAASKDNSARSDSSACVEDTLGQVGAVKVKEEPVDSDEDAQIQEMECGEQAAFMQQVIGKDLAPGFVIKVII

Variant	effect of a mutation on the interaction
H216A	decreasing interaction strength
H216A;H611A	disrupting interaction strength
H611A	decreasing interaction strength
